This note sets out measurements from US20230192845A1.

The target in assay [1] is hCD96-HA tagged protein transiently expressed on CHO cells (FRET assay) (human) (UniProt P40200). The assay is described as follows: FRET between anti-HA-PE and anti-HA-APC by flow cytometry on CHO cells transfected with hCD96-HA; right-hand plot; the left-hand plot of the panel prints FRET 0,10% (taken as the pooled negative control). On the technique in general: In flow cytometry, cells or beads pass a laser one at a time.

Assay [2] deals with hCD226-His tagged protein transiently expressed on CHO cells (human) (UniProt Q15762). The assay is described as follows: FRET between anti-hCD226-PE (DX11) and anti-HA-APC by flow cytometry on CHO cells transfected with hCD96-HA and hCD226-His; right-hand plot; the left-hand plot of the panel prints FRET 0,22% (taken as the pooled negative control).
Sequence of hCD226-His tagged protein transiently expressed on CHO cells (human) (Q15762 19-336): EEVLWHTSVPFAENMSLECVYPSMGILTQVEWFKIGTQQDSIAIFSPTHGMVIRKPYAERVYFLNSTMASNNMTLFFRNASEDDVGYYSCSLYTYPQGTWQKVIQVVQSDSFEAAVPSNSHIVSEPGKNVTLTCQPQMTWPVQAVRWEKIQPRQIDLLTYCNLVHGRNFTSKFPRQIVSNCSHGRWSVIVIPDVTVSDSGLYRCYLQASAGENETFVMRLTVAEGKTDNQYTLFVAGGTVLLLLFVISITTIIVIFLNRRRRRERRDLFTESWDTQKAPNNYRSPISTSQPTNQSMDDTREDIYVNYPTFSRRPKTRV
Assay [3] addresses human CD96 short isoform v2 expressed on CHO cells (human) (UniProt P40200). Kind of assay: FCM on hCD96v2-CHO cells.
Assay [4] has the same target. The assay is described as follows: FCM, inhibition of hCD155-Fc binding to hCD96v2-CHO cells.
Assay [5] addresses T1, hCD96-humanIgG1 fusion protein (human) (UniProt P40200).
T1 sequence: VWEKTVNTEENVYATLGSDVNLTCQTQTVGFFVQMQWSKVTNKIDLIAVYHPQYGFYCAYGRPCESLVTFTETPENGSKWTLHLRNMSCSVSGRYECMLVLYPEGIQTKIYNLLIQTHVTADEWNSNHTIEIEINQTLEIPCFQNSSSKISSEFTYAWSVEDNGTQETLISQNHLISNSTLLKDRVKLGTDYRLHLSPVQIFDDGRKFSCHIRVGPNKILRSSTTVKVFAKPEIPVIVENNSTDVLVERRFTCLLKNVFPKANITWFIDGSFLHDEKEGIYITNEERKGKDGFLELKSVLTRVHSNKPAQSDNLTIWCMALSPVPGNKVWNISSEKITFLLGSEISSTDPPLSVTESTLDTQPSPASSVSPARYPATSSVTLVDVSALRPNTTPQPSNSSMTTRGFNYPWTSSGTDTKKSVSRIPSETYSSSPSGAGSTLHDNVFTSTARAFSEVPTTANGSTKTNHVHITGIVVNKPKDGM
Kind of assay: SPR (Biacore), hCD96-hFc captured by anti-huFc. On the technique in general: SPR reads the build-up and loss of mass on a sensor chip optically.

In the case of “hCD96-HA tagged protein transiently expressed on CHO cells (FRET assay) (from UniProt P40200 22-585) (receptor)”, the FRET (% of cells in the FRET gate) stood at 11.6% in assay [1] and 17.9% in assay [2].

Turning to clone 628211 (antibody), in assay [3], the EC50 (usually the concentration needed to bring the measured effect to its halfway point) was 3.75 nM and the Maximum binding (delta MFI) is 543000 delta MFI. In assay [4], the IC50 (commonly the point on the concentration scale where inhibition reaches its midpoint) worked out at 15.8 nM and the Maximal Inhibition Capacity (%) amounted to 100%.

In assay [3], NK92.39 (antibody) had an EC50 of 1.59 nM and a Maximum binding (delta MFI) of 283000 delta MFI. In assay [4], the IC50 stood at 10.4 nM and the Maximal Inhibition Capacity (%) was 100%. In assay [5], the Kd – broadly, the equilibrium constant for the complex coming apart – was found to be 3.24 nM; the koff – broadly, the rate constant with which the complex falls apart – amounted to 0.000346 s⁻¹; the kon (commonly a measure of how fast the partners come together) stood at 107000 M⁻¹ s⁻¹.
